Reference: PMC3656090 (PLoS Pathogens, 2013)

Molecular target: T1, synthetic peptide comprising the epitope II region (residues 434-446) of HCV E2, strain H77 (Hepatitis C virus, strain H77)
T1 chain: NTGWLAGLFYQHK
Test: crystal structure; Fab 10 mg/ml + epitope II peptide (0.9 mg/ml for HC84-1, 1.5 mg/ml for HC84-27), complex formed overnight at 277 K; crystals at 293 K, hanging drop, 10 mM TRIS pH 8.0, 150 mM NaCl
Details: both partners purified

B1: Fab fragment of human monoclonal antibody HC84-27 (Fab, V domains shown)
VH: QVTLKESGAEVKKPGSSVKVSCEASGGTLSNYVITWVRQAPGQGLEWMGGFIPTFRTAMYAQGFQGRVTITADESTSIAYMELTNLRSEDTAVYYCARGPLSRGYYDYWGQGTLVTVSS
VL: SYVLTQPPSVSVSPGQTARITCSGDKLGDKYASWYQQKPGQSPVLVIYQDNKRPSEIPARFSGSNSGNTATLTISGAQAMDEADYYCQAWDSNTGVFGTGTKLTVL
binding result: binds
